From article PMC2886590 (Journal of molecular biology, 2010)
Where no end group is shown, it is not given here.

Target: MLL PHD3 finger (residues 1565-1627), GST cleaved (human, UniProt Q03164 1565-1627)
Test: other fluorescence titration

Chain of MLL PHD3 finger (residues 1565-1627), GST cleaved (Q03164 1565-1627): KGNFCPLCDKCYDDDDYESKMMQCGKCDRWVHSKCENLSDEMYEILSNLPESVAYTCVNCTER

Row | Binder | fold lower affinity than for H3K4me3
1 | ARTK(Me2)QTARKSTG [H3K4me2 peptide (12-mer histone tail peptide)] | 8 fold
2 | ARTK(Me)QTARKSTG [H3K4me1 peptide (12-mer histone tail peptide)] | 53 fold
